Assay results: publication PMC7980781

Target: T1, Purified 6xHis tagged recombinant FLCN, Q8NFG4
T1 chain: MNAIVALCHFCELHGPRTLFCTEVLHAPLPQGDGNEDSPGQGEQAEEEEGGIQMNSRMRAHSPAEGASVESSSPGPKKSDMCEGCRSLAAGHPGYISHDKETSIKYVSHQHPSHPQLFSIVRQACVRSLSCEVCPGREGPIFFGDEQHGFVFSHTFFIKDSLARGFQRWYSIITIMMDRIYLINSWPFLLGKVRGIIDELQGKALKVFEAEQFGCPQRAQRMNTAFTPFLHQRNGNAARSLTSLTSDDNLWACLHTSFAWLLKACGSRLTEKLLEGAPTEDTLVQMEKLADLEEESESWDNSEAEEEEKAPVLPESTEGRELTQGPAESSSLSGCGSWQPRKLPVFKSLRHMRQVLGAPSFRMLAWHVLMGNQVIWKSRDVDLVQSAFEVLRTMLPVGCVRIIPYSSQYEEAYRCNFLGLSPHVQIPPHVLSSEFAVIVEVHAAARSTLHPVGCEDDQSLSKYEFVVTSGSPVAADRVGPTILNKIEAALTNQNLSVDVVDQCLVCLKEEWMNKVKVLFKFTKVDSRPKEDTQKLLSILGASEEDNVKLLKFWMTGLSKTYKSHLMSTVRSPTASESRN
Assay: native gel or EMSA
Details: remark: other sources report otherwise

B1: Purified 6xHis tagged recombinant FLCN, Q8NFG4 1-579 (natural protein)
chain: MNAIVALCHFCELHGPRTLFCTEVLHAPLPQGDGNEDSPGQGEQAEEEEGGIQMNSRMRAHSPAEGASVESSSPGPKKSDMCEGCRSLAAGHPGYISHDKETSIKYVSHQHPSHPQLFSIVRQACVRSLSCEVCPGREGPIFFGDEQHGFVFSHTFFIKDSLARGFQRWYSIITIMMDRIYLINSWPFLLGKVRGIIDELQGKALKVFEAEQFGCPQRAQRMNTAFTPFLHQRNGNAARSLTSLTSDDNLWACLHTSFAWLLKACGSRLTEKLLEGAPTEDTLVQMEKLADLEEESESWDNSEAEEEEKAPVLPESTEGRELTQGPAESSSLSGCGSWQPRKLPVFKSLRHMRQVLGAPSFRMLAWHVLMGNQVIWKSRDVDLVQSAFEVLRTMLPVGCVRIIPYSSQYEEAYRCNFLGLSPHVQIPPHVLSSEFAVIVEVHAAARSTLHPVGCEDDQSLSKYEFVVTSGSPVAADRVGPTILNKIEAALTNQNLSVDVVDQCLVCLKEEWMNKVKVLFKFTKVDSRPKEDTQKLLSILGASEEDNVKLLKFWMTGLSKTYKSHLMSTVRSPTASESRN
stoichiometry N: 2
